Publication PMC9482650, “Quantitative fragmentomics allow affinity mapping of interactomes” (Nature Communications, 2022)

T1: NHERF3_3, Q5T2W1
T1 sequence (Q5T2W1 238-333, limits assumed, looked up): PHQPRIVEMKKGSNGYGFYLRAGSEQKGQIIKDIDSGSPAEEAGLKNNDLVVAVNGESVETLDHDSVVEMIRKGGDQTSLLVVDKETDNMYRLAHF

T2: APBA2_2, Q99767
T2 sequence (Q99767 654-744, limits assumed, looked up): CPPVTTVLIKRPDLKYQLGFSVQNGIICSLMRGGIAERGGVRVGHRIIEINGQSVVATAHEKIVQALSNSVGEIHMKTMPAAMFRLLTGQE

T3: HTRA3, P83110
T3 sequence (P83110 354-453, limits assumed, looked up): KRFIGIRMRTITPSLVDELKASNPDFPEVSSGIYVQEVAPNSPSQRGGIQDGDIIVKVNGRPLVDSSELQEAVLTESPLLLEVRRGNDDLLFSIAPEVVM

T4: DFNB31_3, Q9P202
T4 sequence (Q9P202 811-907, limits assumed, looked up): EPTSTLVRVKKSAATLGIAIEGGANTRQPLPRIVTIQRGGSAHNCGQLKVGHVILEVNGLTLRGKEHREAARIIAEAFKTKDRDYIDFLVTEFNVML

T5: DFNB31_2, Q9P202
T5 sequence (Q9P202 274-371, limits assumed, looked up): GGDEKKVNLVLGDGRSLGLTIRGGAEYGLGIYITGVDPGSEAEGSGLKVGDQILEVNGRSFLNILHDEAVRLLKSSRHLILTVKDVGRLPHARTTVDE

T6: LNX2_2, Q8N448
T6 sequence (Q8N448 334-432, limits assumed, looked up): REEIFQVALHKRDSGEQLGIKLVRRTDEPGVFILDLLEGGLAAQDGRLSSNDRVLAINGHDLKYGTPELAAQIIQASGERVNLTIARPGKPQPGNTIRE

T7: ARHGEF11, O15085
T7 sequence (O15085 42-136, limits assumed, looked up): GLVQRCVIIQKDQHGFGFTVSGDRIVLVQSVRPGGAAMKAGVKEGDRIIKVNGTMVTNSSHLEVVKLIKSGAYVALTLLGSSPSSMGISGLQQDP

T8: LNX2_3, Q8N448
T8 sequence (Q8N448 463-564, limits assumed, looked up): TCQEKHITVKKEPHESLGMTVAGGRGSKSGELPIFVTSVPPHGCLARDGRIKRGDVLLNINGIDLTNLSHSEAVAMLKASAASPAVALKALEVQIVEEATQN

T9: MPDZ_10, O75970
T9 sequence (O75970 1624-1722, limits assumed, looked up): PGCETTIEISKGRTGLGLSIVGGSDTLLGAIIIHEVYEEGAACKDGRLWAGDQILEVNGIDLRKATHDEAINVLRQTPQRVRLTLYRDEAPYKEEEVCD


Key:
Test in all cases: holdup assay
Design in all cases: key: below the threshold = too weak to quantify, mostly under pKd 3.1 to 4
Conditions in all cases: plain residues with an end cap or a label only (N-terminal biotin on a linker: ttds)
NHERF3_3, Q5T2W1 = molecular target: T1, NHERF3_3, Q5T2W1
Inadl_4, Q8NI35 = molecular target: Inadl_4, Q8NI35
Inadl_4, Q8NI35, sequence (Q8NI35 547-651): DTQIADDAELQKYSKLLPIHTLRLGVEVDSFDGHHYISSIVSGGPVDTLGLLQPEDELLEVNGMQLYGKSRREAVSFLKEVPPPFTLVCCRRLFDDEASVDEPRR

GORASP2, Q9H8Y8 = molecular target: GORASP2, Q9H8Y8
APBA2_2, Q99767 = molecular target: T2, APBA2_2, Q99767
Inadl_9, Q8NI35 = molecular target: Inadl_9, Q8NI35
Inadl_9, Q8NI35, sequence (Q8NI35 1530-1615): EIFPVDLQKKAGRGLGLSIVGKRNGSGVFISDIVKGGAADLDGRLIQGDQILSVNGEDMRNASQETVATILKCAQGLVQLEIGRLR

HTRA3, P83110 = molecular target: T3, HTRA3, P83110
Inadl_1, Q8NI35 = molecular target: Inadl_1, Q8NI35
Inadl_1, Q8NI35, sequence (Q8NI35 113-229): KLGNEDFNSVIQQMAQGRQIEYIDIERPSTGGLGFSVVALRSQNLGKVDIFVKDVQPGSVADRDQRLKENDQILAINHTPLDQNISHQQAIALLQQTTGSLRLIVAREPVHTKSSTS

MAST1, Q9Y2H9 = molecular target: MAST1, Q9Y2H9
MAST1, Q9Y2H9, sequence (Q9Y2H9 962-1065): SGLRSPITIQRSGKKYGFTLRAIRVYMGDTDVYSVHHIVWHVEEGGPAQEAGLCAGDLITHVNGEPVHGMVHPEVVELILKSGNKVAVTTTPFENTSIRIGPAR

MAGI3_2, Q5TCQ9 = molecular target: MAGI3_2, Q5TCQ9
MAGI3_2, Q5TCQ9, sequence (Q5TCQ9 398-503): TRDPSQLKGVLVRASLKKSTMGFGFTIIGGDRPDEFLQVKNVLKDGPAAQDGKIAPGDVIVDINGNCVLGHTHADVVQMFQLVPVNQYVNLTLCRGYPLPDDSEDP

DFNB31_3, Q9P202 = molecular target: T4, DFNB31_3, Q9P202
SNX27, Q96L92 = molecular target: SNX27, Q96L92
TJP1_2, Q07157 = molecular target: TJP1_2, Q07157
TJP1_2, Q07157, sequence (Q07157 181-274): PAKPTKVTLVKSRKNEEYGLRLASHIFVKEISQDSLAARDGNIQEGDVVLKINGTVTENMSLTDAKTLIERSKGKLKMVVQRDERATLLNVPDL

IL16_3, Q14005 = molecular target: IL16_3, Q14005
IL16_3, Q14005, sequence (Q14005 1107-1207): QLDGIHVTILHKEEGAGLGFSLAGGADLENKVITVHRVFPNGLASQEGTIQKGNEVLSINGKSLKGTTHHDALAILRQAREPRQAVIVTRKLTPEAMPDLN

GRID2IP_2, A4D2P6 = molecular target: GRID2IP_2, A4D2P6
GRID2IP_2, A4D2P6, sequence (A4D2P6 272-370): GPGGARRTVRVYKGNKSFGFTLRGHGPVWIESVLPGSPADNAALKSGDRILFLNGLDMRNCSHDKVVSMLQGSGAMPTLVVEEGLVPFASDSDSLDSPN

DFNB31_2, Q9P202 = molecular target: T5, DFNB31_2, Q9P202
MAGI1_1, Q96QZ7 = molecular target: MAGI1_1, Q96QZ7
MAGI1_1, Q96QZ7, sequence (Q96QZ7 1-106): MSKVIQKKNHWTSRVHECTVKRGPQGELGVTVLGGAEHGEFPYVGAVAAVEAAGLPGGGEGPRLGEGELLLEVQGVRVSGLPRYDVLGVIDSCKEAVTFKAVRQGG

HTRA1, Q92743 = molecular target: HTRA1, Q92743
HTRA1, Q92743, sequence (Q92743 360-477): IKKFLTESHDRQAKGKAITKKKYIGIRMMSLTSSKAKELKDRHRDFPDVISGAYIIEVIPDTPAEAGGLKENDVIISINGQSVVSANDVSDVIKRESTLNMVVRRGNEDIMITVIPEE

GRIP2_4, Q9C0E4 = molecular target: GRIP2_4, Q9C0E4
GRIP2_4, Q9C0E4, sequence (Q9C0E4 446-548): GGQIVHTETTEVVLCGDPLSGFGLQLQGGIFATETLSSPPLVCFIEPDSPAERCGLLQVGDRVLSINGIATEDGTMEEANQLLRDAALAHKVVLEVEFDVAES

LNX2_2, Q8N448 = molecular target: T6, LNX2_2, Q8N448
DLG1_3, Q12959 = molecular target: DLG1_3, Q12959
DLG1_3, Q12959, sequence (Q12959 457-571): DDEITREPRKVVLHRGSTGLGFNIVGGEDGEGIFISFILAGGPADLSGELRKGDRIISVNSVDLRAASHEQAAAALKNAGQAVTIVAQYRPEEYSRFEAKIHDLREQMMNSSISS

GOPC, Q9HD26 = molecular target: GOPC, Q9HD26
ARHGEF11, O15085 = molecular target: T7, ARHGEF11, O15085
LNX2_3, Q8N448 = molecular target: T8, LNX2_3, Q8N448
HTRA2, O43464 = molecular target: HTRA2, O43464
HTRA2, O43464, sequence (O43464 355-458): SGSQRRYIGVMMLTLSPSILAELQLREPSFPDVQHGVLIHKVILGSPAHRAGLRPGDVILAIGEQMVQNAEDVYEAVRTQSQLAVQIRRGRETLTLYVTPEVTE

Inadl_5, Q8NI35 = molecular target: Inadl_5, Q8NI35
Inadl_5, Q8NI35, sequence (Q8NI35 673-780): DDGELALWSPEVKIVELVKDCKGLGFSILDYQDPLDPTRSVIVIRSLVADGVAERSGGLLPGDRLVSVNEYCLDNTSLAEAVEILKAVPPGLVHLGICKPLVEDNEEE

PICK1, Q9NRD5 = molecular target: PICK1, Q9NRD5
PICK1, Q9NRD5, sequence (Q9NRD5 17-115): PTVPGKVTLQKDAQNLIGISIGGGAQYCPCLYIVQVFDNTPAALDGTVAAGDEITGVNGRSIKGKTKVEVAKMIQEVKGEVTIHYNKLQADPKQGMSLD

TJP1_3, Q07157 = molecular target: TJP1_3, Q07157
TJP1_3, Q07157, sequence (Q07157 416-512): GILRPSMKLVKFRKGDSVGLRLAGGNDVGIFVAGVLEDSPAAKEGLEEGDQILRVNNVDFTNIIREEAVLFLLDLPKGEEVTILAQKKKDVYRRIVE

GRIP2_5, Q9C0E4 = molecular target: GRIP2_5, Q9C0E4
GRIP2_5, Q9C0E4, sequence (Q9C0E4 544-642): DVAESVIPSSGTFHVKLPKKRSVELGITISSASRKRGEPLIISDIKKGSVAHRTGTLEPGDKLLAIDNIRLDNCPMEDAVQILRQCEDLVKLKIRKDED

MPDZ_10, O75970 = molecular target: T9, MPDZ_10, O75970

Row | Binder | pKd (NHERF3_3, Q5T2W1) | pKd (Inadl_4, Q8NI35) | pKd (GORASP2, Q9H8Y8) | pKd (APBA2_2, Q99767) | pKd (Inadl_9, Q8NI35) | pKd (HTRA3, P83110) | pKd (Inadl_1, Q8NI35) | pKd (MAST1, Q9Y2H9) | pKd (MAGI3_2, Q5TCQ9) | pKd (DFNB31_3, Q9P202) | pKd (SNX27, Q96L92) | pKd (TJP1_2, Q07157) | pKd (IL16_3, Q14005) | pKd (GRID2IP_2, A4D2P6) | pKd (DFNB31_2, Q9P202) | pKd (MAGI1_1, Q96QZ7) | pKd (HTRA1, Q92743) | pKd (GRIP2_4, Q9C0E4) | pKd (LNX2_2, Q8N448) | pKd (DLG1_3, Q12959) | further results
1 | PRVKPQRSKV [PPP1R13L, Q8WUF5] | below the threshold | below the threshold | below the threshold | below the threshold | below the threshold | below the threshold | 3.66 | 3.71 | 4.07 | below the threshold | below the threshold | below the threshold | below the threshold | 4.51 | below the threshold | below the threshold | below the threshold | below the threshold | below the threshold | below the threshold | pKd (GOPC, Q9HD26): 3.95; pKd (ARHGEF11, O15085): 3.64; pKd (LNX2_3, Q8N448): below the threshold; pKd (HTRA2, O43464): below the threshold; pKd (Inadl_5, Q8NI35): below the threshold; pKd (PICK1, Q9NRD5): below the threshold; pKd (TJP1_3, Q07157): below the threshold; pKd (GRIP2_5, Q9C0E4): below the threshold; pKd (MPDZ_10, O75970): below the threshold
2 | SKPTRRETEV [HPV35-E6, P27228] | below the threshold | below the threshold | 3.82 | below the threshold | below the threshold | below the threshold | below the threshold | below the threshold | 5.39 | below the threshold | 4.66 | below the threshold | below the threshold | below the threshold | below the threshold | below the threshold | below the threshold | below the threshold | below the threshold | 4.77 | pKd (GOPC, Q9HD26): below the threshold; pKd (ARHGEF11, O15085): 4.11; pKd (LNX2_3, Q8N448): below the threshold; pKd (HTRA2, O43464): below the threshold; pKd (Inadl_5, Q8NI35): below the threshold; pKd (PICK1, Q9NRD5): below the threshold; pKd (TJP1_3, Q07157): below the threshold; pKd (GRIP2_5, Q9C0E4): below the threshold; pKd (MPDZ_10, O75970): below the threshold
